In patent US20220380801A1, “TRIPARTITE SYSTEMS FOR PROTEIN DIMERIZATION AND METHODS OF USE” (priority 2019, published 2022):

Columns and labels:
[1] = target: T1, HCV NS3/4A PR (S139A) (Hepatitis C virus subtype 1a, UniProt A8DG50, A1066T/I1043Q/I1044E/L1039E/L1040E/L1047Q/S1165A, form not given); assay: Phage ELISA; type: binding; settings: phage ELISA signal with simeprevir divided by signal without simeprevir
Experimental: Specific binding to HCV NS3/4A PR (S139A) was assessed by phage ELISA using single phagemid scFv or Tn3 clones induced for expression as described ((Osbourn et al. 1996)). Briefly, individual TG1 colonies encoding phage clones from round 3 and round 4 selection outputs, and negative control clones, were grown in 96 well plates at […] shaking at 280 rpm to log phase in media containing 100 μg/ml ampicillin and 2% (w/v) glucose. Helper phage was then added to each well and the plates incubated at […] for 1 hour, shaking at 150 rpm. Plates were then centrifuged at 4500 rpm for 10 minutes at room temperature and the media was removed and replaced with media containing 100 μg/ml ampicillin and 50 μg/ml kanamycin. Plates were then incubated overnight at 25° C., shaking at 280 rpm. The following day, phage preparations were blocked by adding an equal volume of 2×PBS containing 6% (w/v) skimmed milk powder (Marvel) to each well of the plate.
Biotinylated HCV NS3/4A PR (S139A) was used to coat 96 well streptavidin-coated plates at 5 μg/ml […] in the presence and absence of a 3-fold excess of simeprevir (5.6 μM). Coated plates were washed with PBS and blocked with PBS containing 3% (w/v) skimmed milk powder (Marvel) for one hour. Following this blocking step, the plate wells were washed three times with PBS, prior to adding the blocked phage preps (produced as described in the phage rescue section). Phage preps were incubated with the antigens for 1 hour at room temperature prior to washing three times with PBS/Tween 20 (0.1% v/v). Phage that bound specifically to the antigen coated plate were detected using an anti-M13 phage-HRP tagged antibody (GE Healthcare), followed by detection using 3,3′, 5,5′-Tetramethylbenzidine (TMB; Sigma). The detection reaction was stopped using 0.5 M H2S04 and plates were read using a […] at 450 nm. Fluorescent readings determined for each clone binding to biotinylated HCV NS3/4A PR (S139A) in the presence of simeprevir was compared to those binding in the absence of simeprevir, by dividing the signal observed in the presence of simeprevir to the signal observed in the absence of simeprevir.

[2] = target: T1, HCV NS3/4A PR (S139A); assay: HTRF binding screen; settings: in the presence of simeprevir
Experimental: scFv and Tn3 PRSIM binding molecules that were selective for the HCV NS3/4A PR (S139A) were identified in homogeneous time-resolved fluorescence (HTRF®) assays run in parallel to measure binding in the presence and absence of simeprevir. HCV NS3/4A PR (S139A), and serial dilutions of purified PRSIM binding molecules, were prepared in assay buffer (PBS containing 0.4 M potassium fluoride and 0.1% BSA). Streptavidin cryptate (Cisbio) was pre-mixed with either anti-FLAG XL665 (to detect the Tn3 molecules) or anti-c-myc XL665 (to detect the scFv molecules) in assay buffer. For each assay 2.5 μl of sample titration was added to 2.5 μl HCV NS3/4A PR (S139A) and 2.5 μl of pre-mixed detection reagents. Either 2.5 μl simeprevir or 2.5 μl of a DMSO blank were also added to each well. Background was defined using wells with zero sample addition. Assay plates were incubated overnight at 4° C., prior to reading the time resolved fluorescence at 620 nm and 665 nm emission wavelengths using a PerkinElmer Envision plate reader. Data was analysed by calculating % Delta F values for each sample. Delta F was determined according to equation 1.
% Delta F=((sample 665 nm/620 nm ratio value)−(background 665 nm/620 nm ratio value)/(background 665 nm/620 nm ratio value))×100 Equation 1
Selective binding molecules are defined as those scFv and Tn3 PRSIM binding molecules that bind to HCV NS3/4A PR (S139A) in complex with simeprevir and no binding to HCV NS3/4A PR (S139A).

[3] = target: T1, HCV NS3/4A PR (S139A); assay: Biacore 8K binding kinetics of PRSIM binding molecules
Experimental: The scFv and Tn3 PRSIM binding molecules were covalently immobilised to a CM5 chip surface using standard amine coupling techniques at a concentration of 1 μg/ml in 10 mM sodium acetate pH 4.5.
(§1) The HCV NS3/4A PR (S139A), or BSA control, was diluted 1:4 (1.25-20 nM)±10 nM simeprevir in 10 mM Hepes pH 7.4, 150 mM NaCl, 0.05% Surfactant P20, 0.01% DMSO, ensuring constant simeprevir and DMSO concentration. The samples were flowed over the chip at 50 μl/min using single cycle kinetics, with 120 sec association and 600 sec dissociation. The chip surface was regenerated with two 20 sec pulses of 10 mM Glycine-HCl pH 3.0. The final sensorgrams were analysed using the Biacore 8K Evaluation Software and the affinity constant KD was determined using a 1:1 binding model. The same method was used for measuring the affinity of the HCV NS3/4A PR mutants for PRSIM_23 with minor deviations. The mutants were diluted 1:4 (2.5-40 nM)±simeprevir in 10 mM Hepes pH 7.4, 150 mM NaCl, 0.05% Surfactant P20, 0.08% DMSO, ensuring constant simeprevir and DMSO concentration. The samples were flowed over the chip at 50 μl/min using single cycle kinetics, with 180 sec association and 600 sec dissociation.

[4] = target: BSA (Bos taurus, UniProt P02769); assay: Biacore 8K BSA control; type: binding; design: key: # = no binding; * = minimal non-specific binding; settings: 10 nM simeprevir present
Experimental: as §1

| Molecule | Binding fold change [(HCV protease + Simeprevir binding)/HCV protease alone] [1] | HTRF max. signal (% delta F) [2] | Kd ([3]; 10 nM simeprevir present) | Rmax ([3]; 10 nM simeprevir present) | ka ([3]; 10 nM simeprevir present) | kd ([3]; 10 nM simeprevir present) | BSA control [4] | Kd ([3]; ‘WT’ (S139A), 20 nM simeprevir) | Rmax ([3]; ‘WT’ (S139A), 20 nM simeprevir) | ka ([3]; ‘WT’ (S139A), 20 nM simeprevir) | kd ([3]; ‘WT’ (S139A), 20 nM simeprevir) |
| --- | --- | --- | --- | --- | --- | --- | --- | --- | --- | --- | --- |
| PRSIM_67: scFv PRSIM binding molecule, SEQ ID NO: 13 (protein, PRSIM_67) scFv: EVQLVQSGAEVKKPGAAVRISCKTSGYVFTSYYVHWVRQAPGQGLEWMGVINPSGGNTNYAQKFQDRVTMTRDTSTTTVYMELSSLMFDDTAVYYCAKRDYGGPLANWGRGTLVTVSSGGGGSGGGGSGGGGSALSYELTQPPSVSEAPRQRVTISCSGSSSNIGNNAVNWYQQLPGKAPKLLIFYDDLLPSGVSDRFSGSKSGTSASLAISGLQSEDEADYYCAAWDDSLNGLVFGTGTKLTVL | 12.7 | 1708 % delta F | 11.5 nM | 19.3 RUs | 1.97e+07 M⁻¹ s⁻¹ | 0.226 s⁻¹ | # | – | – | – | – |
| PRSIM_33: Tn3 PRSIM binding molecule, SEQ ID NO: 7 (protein, PRSIM_33) RLDAPSQIEVKDVTDTTALITWYPPGRWYDDIWYFELTYGIKDVPGDRTTIKLARGDDVYSIGNLKPDTEYEVSLISWGPDRGDRAGSNPAKITFKTGL | – | 1704 % delta F | – | 171.9 RUs | 3.65e+06 M⁻¹ s⁻¹ | 0.0303 s⁻¹ | # | – | – | – | – |
| PRSIM_23: Tn3 protein specific for HCV NS3/4A PR (S139A):simeprevir complex, SEQ ID NO: 5 (protein, PRSIM_23) RLDAPSQIEVKDVTDTTALITWVDPRYDDIWWFELTYGIKDVPGDRTTIKLYLNDPYYSIGNLKPDTEYEVSLISYTGDSYSRSGSNPAKITFKTGL | 23.8 | 1573 % delta F | 6.3 nM | 284 RUs | 5.03e+06 M⁻¹ s⁻¹ | 0.0318 s⁻¹ | # | 5.4 nM | 215 RUs | 5.59e+09 M⁻¹ s⁻¹ | 31 s⁻¹ |
| PRSIM_75: scFv PRSIM binding molecule, SEQ ID NO: 15 (protein, PRSIM_75) scFv: EVQLVQSGAEVKKPGSSVKVSCKASGGSFNSYTLDWVRQAPGQGLEWMGGIIPVFGSPNYGQKFQGRVTITADESTSTAYMELSSLKSDDTAVYYCARGLVYQPLDSWGRGTLVTVSSGGGGSGGGGSGGGGSAQAVLTQPSSASGTPGQRVTISCSGSSSNIGSYTVNWYQQFPGTAPKLLIYSNTQRPSGVPDRFSGSKSGTSASLAISGLQSEDEADYYCAAWDDSLNGWVFGGGTKVTVL | 6.9 | 1030 % delta F | 0.3 nM | 88.8 RUs | 9.09e+06 M⁻¹ s⁻¹ | 0.00267 s⁻¹ | # | – | – | – | – |
| PRSIM_57: scFv specific for HCV NS3/4A PR (S139A):simeprevir complex, SEQ ID NO: 12 (protein, PRSIM_57) scFv: QVQLVQSGAEVKKPGSSVKVSCKASGGTFSSYAISWVRQAPGQGLEWMGGIIPIFGTANYAQKFQGRVTITADESTSTAYMELSSLRSEDTAVYYCARHTNYITVFDYWGQGTLVTVSSGGGGSGGGGSGGGGSAQSVLTQPPSASGTPGQRVTISCSGSSSNIGSNTVNWYQQLPGTAPKLLIYSNNQRPSGVPDRFSGSKSGTSASLAISGLQSEDEADYYCAAWDHHWEQVVFGGGTKLTVL | 15.7 | 1076 % delta F | 15 nM | 69.1 RUs | 1.73e+07 M⁻¹ s⁻¹ | 0.26 s⁻¹ | # | – | – | – | – |
| PRSIM_04: scFv PRSIM binding molecule, SEQ ID NO: 11 (protein, PRSIM_04) scFv: QVQLVQSGAEVKKPGSSVKVSCKASGGTFSSYAISWVRQAPGQGLEWMGGIIPIFGTANYAQKFQGRVTITADESTSTAYMELSSLRSEDTAVYYCARGMAHFYQFDLWGQGTLVTVSSGGGGSGGGGSGGGGSAQSVLTQPPSASGTPGQRVTISCSGSSSNIGSNTVNWYQQLPGTAPKLLIYSNNQRPSGVPDRFSGSKSGTSASLAISGLQSEDEADYYCAAGDHDHEHVVFGGGTKLTVL | 30.3 | 1055 % delta F | 11.2 nM | 65.9 RUs | 1.74e+07 M⁻¹ s⁻¹ | 0.195 s⁻¹ | # | – | – | – | – |
| PRSIM_72: scFv PRSIM binding molecule, SEQ ID NO: 14 (protein, PRSIM_72) scFv: QVQLVQSGAEVKKPGSSVKVSCKASGGTFSSYAISWVRQAPGQGLEWMGGIIPIFGTANYAQKFQGRVTITADESTSTAYMELSSLRSEDTAVYYCARGMAHFYQFDLWGQGTLVTVSSGGGGSGGGGSGGGGSAQSVLTQPPSASGTPGQRVTISCSGSSSNIGSNTVNWYQQLPGTAPKLLIYSNNQRPSGVPDRFSGSKSGTSASLAISGLQSEDEADYYCAAGDHDHEHVVFGGGTKLTVL | 12.5 | 1107 % delta F | 1 nM | 33.4 RUs | 1.18e+06 M⁻¹ s⁻¹ | 0.00118 s⁻¹ | # | – | – | – | – |
